Laboratory results as given in the RNAGym collection of RNA variant scans (doi:10.1073/pnas.2313332121).

B1: TPR t1 (parent)
chain: GACCAAUCUGCCCUCAGAGCUCGAGAACAUCUUCGGAUGCAGAGGAGGCAGGCUUCGGUGGCGCGAUAGCGCCAACGUCCUCAACCUCCAAUGCAUCCCACCACAUGAUGAUGCCUGAAGAGCCUUGGUUUUUUG

Variants of: B1
Test: polymerase ribozyme fitness, log enrichment relative to wild type (log ratio); higher = more active; in vitro selection for triplet polymerase activity
Method in brief: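 Mutant libraries of both subunits of a heterodimeric triplet polymerase ribozyme were PCR-built, transcribed, and selected once in triplicate, with frozen incubation at −7 °C and capture of gel-excised extended constructs on streptavidin beads before RT-PCR. Illumina sequencing of input and output libraries was filtered to genotypes with ≥10 input reads and ≥1 read per output. Fitness is the logarithm of genotype enrichment over wild-type enrichment, using inverse-variance-weighted replicate averages. The logarithm is base 2.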
For C22U U54G, the “polymerase ribozyme fitness (log ratio)” value was -3.24.
In the case of A16U C70U G117U C123A, the “polymerase ribozyme fitness (log ratio)” value is reported as -4.02.
In the case of A2C C73U C76G U112G, the “polymerase ribozyme fitness (log ratio)” value is reported as -1.38.
In the case of C3A U9C C11A C49G U109A U126G, the “polymerase ribozyme fitness (log ratio)” value is reported as -6.11.
With G58A C72G C82A the “polymerase ribozyme fitness (log ratio)” value was -0.468.
For G47U A105G, the “polymerase ribozyme fitness (log ratio)” value was -3.69.
For A2G G52A C99U, the “polymerase ribozyme fitness (log ratio)” value was -3.53.
In the case of G120U U125A, the “polymerase ribozyme fitness (log ratio)” value is reported as 0.531.
With A6G U14G G58A C70U the “polymerase ribozyme fitness (log ratio)” value was -1.12.
For G60C C73U U130G, the “polymerase ribozyme fitness (log ratio)” value was -0.603.
With G10A C53U G61C G122A G127U U129A the “polymerase ribozyme fitness (log ratio)” value was 0.0511.
In the case of C15A C20U G48A A91U, the “polymerase ribozyme fitness (log ratio)” value is reported as -4.59.
With G36C G63U A83G U126G the “polymerase ribozyme fitness (log ratio)” value was -5.42.
With U78G the “polymerase ribozyme fitness (log ratio)” value was -0.246.
In the case of A2U G65A C80G A84G C115U G117A G127U, the “polymerase ribozyme fitness (log ratio)” value is reported as -5.92.
For G61U C79A C99A G120C, the “polymerase ribozyme fitness (log ratio)” value was -6.8.
With G63A C82G G117U C123G the “polymerase ribozyme fitness (log ratio)” value was -3.95.
With A16G G42U C102U C124G the “polymerase ribozyme fitness (log ratio)” value was -3.81.
With C12U G47U A83C the “polymerase ribozyme fitness (log ratio)” value was -2.09.
In the case of C20A G44U, the “polymerase ribozyme fitness (log ratio)” value is reported as -4.1.
In the case of G19U U87G G110C U112G, the “polymerase ribozyme fitness (log ratio)” value is reported as -6.7.
For C15A C80U A84U, the “polymerase ribozyme fitness (log ratio)” value was -2.49.
For G19A A43U C53U C56A, the “polymerase ribozyme fitness (log ratio)” value was -3.04.
In the case of C3A C97A C114U, the “polymerase ribozyme fitness (log ratio)” value is reported as -5.53.
With A2G C3G C31G A43U G60U C94U C114G the “polymerase ribozyme fitness (log ratio)” value was -7.19.
For C85A U96A, the “polymerase ribozyme fitness (log ratio)” value was -2.43.
In the case of A6G C72A, the “polymerase ribozyme fitness (log ratio)” value is reported as 0.991.
With A5U C86A the “polymerase ribozyme fitness (log ratio)” value was -0.495.
For G10A A43C C123A U125C, the “polymerase ribozyme fitness (log ratio)” value was -1.73.
In the case of U54C U59C G61U U125A, the “polymerase ribozyme fitness (log ratio)” value is reported as -6.69.
With A83G U112C U131A the “polymerase ribozyme fitness (log ratio)” value was 1.02.
With G61U C72U U131A the “polymerase ribozyme fitness (log ratio)” value was -0.274.
With U9C C73A C85G the “polymerase ribozyme fitness (log ratio)” value was -0.637.
In the case of C40G G44U G63C C85U, the “polymerase ribozyme fitness (log ratio)” value is reported as -5.9.
With C12U C79G C89A A121C the “polymerase ribozyme fitness (log ratio)” value was -3.82.
With A37C G52U C80A the “polymerase ribozyme fitness (log ratio)” value was -4.05.
For G45U G61A C88U A90C G113A, the “polymerase ribozyme fitness (log ratio)” value was -3.
For U54C C73U A83U G113U U134G, the “polymerase ribozyme fitness (log ratio)” value was -2.89.
In the case of C62G U87C A111G, the “polymerase ribozyme fitness (log ratio)” value is reported as -3.32.
With C11U C12A A41C C56G the “polymerase ribozyme fitness (log ratio)” value was -2.42.
In the case of G36A C85A G117A, the “polymerase ribozyme fitness (log ratio)” value is reported as -3.37.
In the case of G61A U78C C86A A95C, the “polymerase ribozyme fitness (log ratio)” value is reported as -1.85.
With G17C G61A G120C the “polymerase ribozyme fitness (log ratio)” value was -1.39.
In the case of C88U U106A C114G, the “polymerase ribozyme fitness (log ratio)” value is reported as -5.05.
In the case of C13U A18G A46C U96C A100C C123G, the “polymerase ribozyme fitness (log ratio)” value is reported as -4.57.
In the case of C12A C20A G63C G113U C115U U131A, the “polymerase ribozyme fitness (log ratio)” value is reported as -3.61.
For C70G C99A G113A, the “polymerase ribozyme fitness (log ratio)” value was -6.35.
With C12G C70G the “polymerase ribozyme fitness (log ratio)” value was -2.83.
With G60C C97G U109A the “polymerase ribozyme fitness (log ratio)” value was -7.09.
With A16C C56A C97G the “polymerase ribozyme fitness (log ratio)” value was -5.42.
In the case of C15U C86U, the “polymerase ribozyme fitness (log ratio)” value is reported as -1.61.
With C20G C40A C70U U92A G93A G113C the “polymerase ribozyme fitness (log ratio)” value was -6.62.
With C40U C53U the “polymerase ribozyme fitness (log ratio)” value was -0.572.
In the case of G47U C104U, the “polymerase ribozyme fitness (log ratio)” value is reported as -1.55.
In the case of G10A G128U, the “polymerase ribozyme fitness (log ratio)” value is reported as -2.02.
With C115U G120C the “polymerase ribozyme fitness (log ratio)” value was -0.978.
For U106A G122A, the “polymerase ribozyme fitness (log ratio)” value was -0.693.
For C98A G120U, the “polymerase ribozyme fitness (log ratio)” value was -4.6.
With C8A U14A C101G the “polymerase ribozyme fitness (log ratio)” value was -1.85.
With A6C C40U G60A C73G G107U C124U the “polymerase ribozyme fitness (log ratio)” value was -5.46.
For C8G G71C, the “polymerase ribozyme fitness (log ratio)” value was -0.095.
In the case of G39U G65A, the “polymerase ribozyme fitness (log ratio)” value is reported as -6.81.
In the case of C99A C123A, the “polymerase ribozyme fitness (log ratio)” value is reported as -5.64.
In the case of C56U A90G, the “polymerase ribozyme fitness (log ratio)” value is reported as 0.117.
For U14C G36C U133A, the “polymerase ribozyme fitness (log ratio)” value was -4.29.
With G42U A50U G69U A105G the “polymerase ribozyme fitness (log ratio)” value was -3.63.
In the case of G69A U81A C82U A119G G122U U125A U129C, the “polymerase ribozyme fitness (log ratio)” value is reported as -5.05.
In the case of C101A C104A A121C, the “polymerase ribozyme fitness (log ratio)” value is reported as -0.368.
In the case of C12A A41U A43U C104U U129G, the “polymerase ribozyme fitness (log ratio)” value is reported as -4.67.
With G45U C72G G93A the “polymerase ribozyme fitness (log ratio)” value was -2.7.
For G44A G77C, the “polymerase ribozyme fitness (log ratio)” value was -0.688.
For U32A A121U U133A, the “polymerase ribozyme fitness (log ratio)” value was -1.22.
For C22U G60A U96G, the “polymerase ribozyme fitness (log ratio)” value was -4.57.
For C20G A37G A118U, the “polymerase ribozyme fitness (log ratio)” value was -3.12.
With G44U U125A U131A the “polymerase ribozyme fitness (log ratio)” value was -2.47.
With C53U U133A the “polymerase ribozyme fitness (log ratio)” value was -0.343.
With G63A C94A the “polymerase ribozyme fitness (log ratio)” value was -0.982.
With C40G U59A C86U A100U the “polymerase ribozyme fitness (log ratio)” value was -4.58.
In the case of U7G C22U G42A G47C G60C U87G U92C, the “polymerase ribozyme fitness (log ratio)” value is reported as -7.02.
For C98U U125A, the “polymerase ribozyme fitness (log ratio)” value was -1.46.
For G10U A18U A29U U54A A121C, the “polymerase ribozyme fitness (log ratio)” value was -1.32.
In the case of G10U C53G C70U C86U A119G, the “polymerase ribozyme fitness (log ratio)” value is reported as -0.267.
For U55G G77C A100U G120C U131A, the “polymerase ribozyme fitness (log ratio)” value was 0.465.
With U9G U109A the “polymerase ribozyme fitness (log ratio)” value was -3.09.
